The text below walks through data of patent publication US6950754.

The target in the assay is GCN4-p1. Kind of assay: size exclusion chromatography, self-association. A general note: In gel filtration, larger molecules generally elute earlier.

GCN4-p1 (peptide; modification not given), sequence (chain, as listed by the source): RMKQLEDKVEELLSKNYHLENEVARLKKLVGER

“GCN4-p1 (peptide; modification not given)”: the oligomerization state (N) came to 2.
